Here are results for two proteins from publication PMC12075841.

Data set [1] can be described thus: NONO immunostaining, paraspeckle count per nucleus. Conditions: glycan lost; control: NONO WT in NONO-KO HCT116.
A short description of data set [2]: NONO immunostaining, speckle count, HCT116. The conditions noted are these: glycan gained; control: 5.5 mM glucose, no OGT.

B1: NONO (Non-POU domain-containing octamer-binding protein): T440A (protein)
parent chain: MQSNKTFNLEKQNHTPRKHHQHHHQQQHHQQQQQQPPPPPIPANGQQASSQNEGLTIDLKNFRKPGEKTFTQRSRLFVGNLPPDITEEEMRKLFEKYGKAGEVFIHKDKGFGFIRLETRTLAEIAKVELDNMPLRGKQLRVRFACHSASLTVRNLPQYVSNELLEEAFSVFGQVERAVVIVDDRGRPSGKGIVEFSGKPAARKALDRCSEGSFLLTTFPRPVTVEPMDQLDDEEGLPEKLVIKNQQFHKEREQPPRFAQPGSFEYEYAMRWKALIEMEKQQQDQVDRNIKEAREKLEMEMEAARHEHQVMLMRQDLMRRQEELRRMEELHNQEVQKRKQLELRQEEERRRREEEMRRQQEEMMRRQQEGFKGTFPDAREQEIRMGQMAMGGAMGINNRGAMPPAPVPAGTPAPPGPATMMPDGTLGLTPPTTERFGQAATMEGIGAIGGTPPAFNRAAPGAEFAPNKRRRY
Take B1: the localisation_or_trafficking result in data set [1] is listed as “decreases”.

B2: NONO (Non-POU domain-containing octamer-binding protein): myc-tagged OGT overexpression (protein)
parent chain: MQSNKTFNLEKQNHTPRKHHQHHHQQQHHQQQQQQPPPPPIPANGQQASSQNEGLTIDLKNFRKPGEKTFTQRSRLFVGNLPPDITEEEMRKLFEKYGKAGEVFIHKDKGFGFIRLETRTLAEIAKVELDNMPLRGKQLRVRFACHSASLTVRNLPQYVSNELLEEAFSVFGQVERAVVIVDDRGRPSGKGIVEFSGKPAARKALDRCSEGSFLLTTFPRPVTVEPMDQLDDEEGLPEKLVIKNQQFHKEREQPPRFAQPGSFEYEYAMRWKALIEMEKQQQDQVDRNIKEAREKLEMEMEAARHEHQVMLMRQDLMRRQEELRRMEELHNQEVQKRKQLELRQEEERRRREEEMRRQQEEMMRRQQEGFKGTFPDAREQEIRMGQMAMGGAMGINNRGAMPPAPVPAGTPAPPGPATMMPDGTLGLTPPTTERFGQAATMEGIGAIGGTPPAFNRAAPGAEFAPNKRRRY
For the protein B2, the localisation_or_trafficking entry in data set [2] is on record as “increases”.
